The record followed here is patent US20240101645A1 (HENRY M JACKSON FOUNDATION FOR THE ADVANCEMENT OF MILITARY …, published 2024).

Substitutions are numbered along the chain they refer to.

The chains are these.
B1: COV_2137 (antibody, V domains shown)
VH: EVQLVESGGGLVKPGGSLRLSCAASGFTFSSYTMNWVRQAPGKGLEWVSSISSGSSFIYYADSLRGRFTISRDNAKNSLYLQMNSLRAEDTAVYYCARAPEPQSVIYAYWYFDLWGRGTLVTVSS
VL: QSALTQPASVSGSPGQSITFSCTGTSSDVGSYNLVSWYQQYPGKAPKLMIYEVNKRPSGVSNRFSGSKSGNTASLTISGLQAEDEADYYCCSYAGSSTFYVFGTGTKVTVLG
notes: human IgG1
B2: COV_1184 (antibody, V domains shown)
VH: QVQLQQWGAGLLKPSETLSLTCAVYGGSFSGYYWSWIRQPPGKGLEWIGEINHSGNTTYNPSLKSRVTISVDTSKNQFSLKLSSVTAADTAVYYCARGLVITYYYDSSGKPFDPWGQGTLVTVSS
VL: not shown
notes: human IgG1
B3: COV_1050 (antibody, V domains shown)
VH: QVQLVESGGGVVQPGRSLRLSCAASRFTFSSYAMHWVRQAPGKGLEWVAVISFDGSNKYYADSVKGRFTIFRDNSKNTLSLQMNSLRTEDTAMYYCASPAGYYESLWGQGTLVTVSS
VL: SYELTQPPSVSVSPGQTARVTCSGDALSKQYGFWYQQKPGQAPTLVIYKDTERPSGIPERFSGSGSGTTVTLTISGVQAEDEADYYCQSTDNSGRWVFGGGTKLTVLG
notes: human IgG1
B4: COV_3053 (antibody, V domains shown)
VH: EVQLVESGGGLVQPGRSLRLSCTASGFTLGDYAMTWVRQAPGKGLEWLGIIRNKRYGETKQYAASVKGRFTFSRDDSKGIGYLQRLSLKIEDTGVYYCTREHIVRDDAFDVWGQGTTVTVSS
VL: DIVMTQSPDSLAVSLGERATINCKSSQSVLYSSNNKNYIAWYQQRPGQPPKLLIYWTSTRASGVPDRFSGSGSGTDFALTISSLQAEDVAVYYCQQYYTIPRTFGQGTKVEIK
notes: human IgG1
B5: COV_2169 (antibody, V domains shown)
VH: EVQLVESGGGVVQPGRSLRLSCAASGFTFSRYAMHWVRQAPGKGLEWVAVISYEGSNKYYADSVKGRFTISRNNSNNTLSLQMNSLRPDDTAVYYCVRSGGHYFDAFDLWGQGTMVTVSS
VL: EIVLTQSPGTLSLSPGERATLSCRASQSVSRNYVAWYQQKPGQAPRLLIYGASSRATGIPDRFSGSGSGTDFTLTISRLEPEDFALYYCQQYGSSYTFGQGTKLEIKR
notes: human IgG1
B6: COV_1025 (antibody, V domains shown)
VH: QVQLVESGGGVVQPGRSLRLSCAASGFTFNTYAMHWVRQAPGKGLEWVAIISYDGGNKYYADSMKGRFTISRDNSKNTLYLQMNSLRAEDTAVYYCARARTGNYYYGMDVWGQGTTVTVSS
VL: not shown
notes: human IgG1
B7: COV_1177 (antibody, V domains shown)
VH: QVQLVESGGGVVQPGRSLRLSCAASGFTFSSYGMHWVRQAPGKGLEWVAVIWYDGSNKYYADSVKGRFTISRDNSKNTLYLQMNSLRAEDTAVYYCARDPLGAVAGYFDYWGQGTLVTVSS
VL: SYVLTQPPSVSVAPGQTARITCGGNNIGSKSVHWYQQKPGQAPVLVVYDDSDRPSGIPERFSGSNSGNTATLTISRVEAGDEADYYCQVWDSSSDHHWVFGGGTKLTVLG
notes: human IgG1
B8: COV_2032 (antibody, V domains shown)
VH: EVQLVESGGGLVQPGGSLRLSCAASGFTFTTYWMHWVRQAPGKGLVWVSRIKTDGSSTNYADSVKGRFTISRDNAKNMLYLQMNSLRAEDTAVYYCAREGPVSIVYFDYWGQGTLVTVSS
VL: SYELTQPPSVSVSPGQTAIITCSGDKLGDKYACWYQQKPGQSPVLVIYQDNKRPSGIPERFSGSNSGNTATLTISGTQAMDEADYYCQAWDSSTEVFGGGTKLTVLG
notes: human IgG1
B9: COV_3088 (antibody, V domains shown)
VH: EVQLVESGGGLVQPGGSLRLSCAASGFTFSSYDMHWVRQATGKGLEWVSAIGTAGDTYYPGSVKGRFTISRENAKNSLYLQMNSLRAGDTAVYYCARGSGWPPFFDYWGQGTLVTVSS
VL: SYELTQPPSVSVAPGKTARITCGGNNIGSKSVHWYQQKPGQAPVLVIYYDSDRPSGIPERFSGSNSGNTATLTISRVEAGDEADYYCQVWDSSSDHHWVFGGGTKLTVL
notes: human IgG1
B10: COV_1118 (antibody, V domains shown)
VH: EVQLVESGGGLVKPGGSLRLSCAASGFSFSNYNMNWVRQAPGKGLEWVSYISSSSSYIYYADSVKGRFTISRDNAKNSLYLQMNSLRGEDTAVYSCAREASGAYYFDRSGYFDYWGQGTLVTVSP
VL: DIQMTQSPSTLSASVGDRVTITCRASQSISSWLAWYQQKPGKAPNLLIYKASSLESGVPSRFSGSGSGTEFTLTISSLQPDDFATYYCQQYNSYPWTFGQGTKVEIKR
notes: human IgG1
B11: COV_1154 (antibody, V domains shown)
VH: B10 VH with S28R, N31D
VL: DIQMTQSPSTLSASVGDRVTITCRASQSISSWLAWYQQKPGKAPNLLIYKASSLESGVPSRFSGSGSGTEFTLTISSLQPYDFATYYCQQYNSYPWAFGQGTKVEMKR
notes: human IgG1
B12: COV_1136 (antibody, V domains shown)
VH: B10 VH with S28T, N31D, Y32C, Y50S, S54R, G88A
VL: B11 VL with Y81D, S93T, A97T, M106I
notes: human IgG1
B13: COV_1145 (antibody, V domains shown)
VH: QVQLVESGGGVVQPGRSLRLSCAASGFTFSSYGMHWVRQAPGKGLEWVAVIWYDGSNKYYADSVKGRFTISRDNSKNTLYLQMNSLRVEDTAVYYCAREGQLGATGLDCWGQGTLVSVSS
VL: SYELTQPPSVSVSPGQTARITCSGDALPKKYAYWYQQKSGQAPVLVIYEDSKRPSGIPERFSGSSSGTMATLTISGAQVEDEADYYCYSTDNSGNHWVFGGGTKLTVLG
notes: human IgG1

The target in the first assay is T1, HCoV-HKU1 spike antigens (bead panel) (HCoV-HKU1, UniProt Q5MQD0 13-1300).
T1 sequence: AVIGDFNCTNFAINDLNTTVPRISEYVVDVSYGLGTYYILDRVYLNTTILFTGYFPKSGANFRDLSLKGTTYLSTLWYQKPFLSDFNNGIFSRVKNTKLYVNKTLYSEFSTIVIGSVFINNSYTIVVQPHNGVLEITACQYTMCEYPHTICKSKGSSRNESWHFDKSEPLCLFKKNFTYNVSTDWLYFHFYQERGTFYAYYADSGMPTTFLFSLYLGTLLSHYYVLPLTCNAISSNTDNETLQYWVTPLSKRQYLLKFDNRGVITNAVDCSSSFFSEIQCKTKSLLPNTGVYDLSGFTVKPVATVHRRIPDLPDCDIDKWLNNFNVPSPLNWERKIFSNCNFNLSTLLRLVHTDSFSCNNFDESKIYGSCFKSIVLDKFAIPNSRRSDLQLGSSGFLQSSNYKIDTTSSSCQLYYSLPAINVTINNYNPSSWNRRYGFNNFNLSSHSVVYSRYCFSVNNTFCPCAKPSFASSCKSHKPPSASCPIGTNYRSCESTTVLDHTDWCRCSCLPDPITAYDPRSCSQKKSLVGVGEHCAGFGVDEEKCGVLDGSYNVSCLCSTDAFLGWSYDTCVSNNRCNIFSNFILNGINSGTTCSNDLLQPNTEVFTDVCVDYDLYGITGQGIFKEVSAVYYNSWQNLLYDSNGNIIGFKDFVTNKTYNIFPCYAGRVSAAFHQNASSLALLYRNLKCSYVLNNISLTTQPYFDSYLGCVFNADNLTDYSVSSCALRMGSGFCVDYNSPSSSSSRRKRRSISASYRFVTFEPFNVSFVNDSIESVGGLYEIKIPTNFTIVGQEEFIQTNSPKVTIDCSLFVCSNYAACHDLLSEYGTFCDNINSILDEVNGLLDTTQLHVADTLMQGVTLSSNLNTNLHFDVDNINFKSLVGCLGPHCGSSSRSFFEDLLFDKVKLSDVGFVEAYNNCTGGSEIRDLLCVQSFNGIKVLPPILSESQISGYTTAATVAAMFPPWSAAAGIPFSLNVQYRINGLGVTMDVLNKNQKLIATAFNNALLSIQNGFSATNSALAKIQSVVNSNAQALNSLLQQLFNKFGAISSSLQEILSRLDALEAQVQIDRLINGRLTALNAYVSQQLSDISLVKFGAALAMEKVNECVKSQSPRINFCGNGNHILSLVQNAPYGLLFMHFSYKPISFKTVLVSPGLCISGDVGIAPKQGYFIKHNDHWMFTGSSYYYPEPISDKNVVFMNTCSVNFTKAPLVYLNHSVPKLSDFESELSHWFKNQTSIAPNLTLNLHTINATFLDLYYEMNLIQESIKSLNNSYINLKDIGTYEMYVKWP
Nature of the assay: multiplex bead assay.
In the case of B1, the binding result is recorded as “no binding”.

B2: the binding result was “no binding”.

Take B3: the binding result is given as “no binding”.

Turning to B4, the binding result is recorded as “no binding”.

Turning to B5, the binding result is recorded as “no binding”.

Regarding B6, the binding result was “no binding”.

For the molecule B7, the binding result was “no binding”.

On to B8, for which the binding result was “no binding”.

As for B9, the binding result is reported as “no binding”.

In the case of B10, the binding result is on record as “no binding”.

As for B11, the binding result is “no binding”.

Turning to B12, the binding result is on record as “no binding”.

As to B13, the binding result is recorded as “no binding”.

The target in another assay is T2, HCoV-OC43 spike antigens (bead panel) (HCoV-OC43, UniProt P36334 14-1297).
T2 sequence: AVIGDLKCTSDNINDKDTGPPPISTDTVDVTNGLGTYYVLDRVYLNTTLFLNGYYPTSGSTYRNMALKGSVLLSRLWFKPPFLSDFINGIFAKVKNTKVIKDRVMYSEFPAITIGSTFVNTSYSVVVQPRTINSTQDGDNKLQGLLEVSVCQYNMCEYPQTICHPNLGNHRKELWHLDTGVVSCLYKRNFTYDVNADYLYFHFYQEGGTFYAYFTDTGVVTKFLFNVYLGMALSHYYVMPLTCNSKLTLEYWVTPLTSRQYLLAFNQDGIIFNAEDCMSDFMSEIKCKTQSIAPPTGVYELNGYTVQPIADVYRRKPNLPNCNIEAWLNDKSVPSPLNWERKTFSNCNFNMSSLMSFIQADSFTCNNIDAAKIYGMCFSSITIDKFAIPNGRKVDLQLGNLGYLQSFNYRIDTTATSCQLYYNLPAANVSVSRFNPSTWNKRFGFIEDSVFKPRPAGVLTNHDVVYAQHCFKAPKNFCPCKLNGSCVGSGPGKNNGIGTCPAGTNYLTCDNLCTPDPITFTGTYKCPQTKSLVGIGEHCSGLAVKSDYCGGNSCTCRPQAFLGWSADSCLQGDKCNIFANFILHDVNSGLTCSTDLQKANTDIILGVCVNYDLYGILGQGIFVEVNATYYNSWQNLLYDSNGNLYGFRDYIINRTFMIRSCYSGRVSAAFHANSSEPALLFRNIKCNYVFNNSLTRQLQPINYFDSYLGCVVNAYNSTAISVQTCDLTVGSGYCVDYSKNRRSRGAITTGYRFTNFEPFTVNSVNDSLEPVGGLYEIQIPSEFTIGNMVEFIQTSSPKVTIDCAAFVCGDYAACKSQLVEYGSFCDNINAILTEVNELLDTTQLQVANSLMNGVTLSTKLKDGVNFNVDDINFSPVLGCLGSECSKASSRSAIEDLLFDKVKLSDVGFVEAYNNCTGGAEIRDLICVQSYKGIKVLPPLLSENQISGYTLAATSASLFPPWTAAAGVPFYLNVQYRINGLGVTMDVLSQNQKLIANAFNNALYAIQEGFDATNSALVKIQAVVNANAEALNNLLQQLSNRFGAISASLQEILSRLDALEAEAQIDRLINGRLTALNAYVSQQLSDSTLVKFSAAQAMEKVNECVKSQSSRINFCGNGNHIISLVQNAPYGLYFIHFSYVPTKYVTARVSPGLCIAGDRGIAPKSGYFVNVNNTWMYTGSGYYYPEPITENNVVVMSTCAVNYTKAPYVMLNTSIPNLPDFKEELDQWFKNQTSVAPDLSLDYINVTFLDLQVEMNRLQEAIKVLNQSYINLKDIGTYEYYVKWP
Kind of assay: multiplex bead assay.
As for B1, the binding result is on record as “no binding”.

In the case of B2, the binding result is recorded as “no binding”.

Consider B3, for which the binding result is “no binding”.

For B4, the binding result is recorded as “no binding”.

B5: the binding result was “no binding”.

With B6, the binding result is listed as “no binding”.

Consider B7, for which the binding result is “no binding”.

Take B8: the binding result is “no binding”.

With B9, the binding result is “no binding”.

On to B10, for which the binding result was “no binding”.

For B11, the binding result is “no binding”.

Regarding B12, the binding result is listed as “no binding”.

Turning to B13, the binding result is “no binding”.
